# Measurements as given in the supplement of paper PMC11246515.
# ± gives the standard deviation of the averaged measurements.
# Assay: total protein half-life in vivo (active degradation + dilution); higher = more stable protein
# [1] = E. coli NCM3722 delta-clpP delta-lon delta-hslV, growth: N-lim chemostat, doubling time 6 h
# [2] = E. coli NCM3722 delta-hslV, growth: N-lim chemostat, doubling time 6 h
# [3] = E. coli NCM3722 delta-lon, growth: N-lim chemostat, doubling time 6 h
# [4] = E. coli NCM3722 delta-smpB, growth: N-lim chemostat, doubling time 6 h
# [5] = wild type E. coli NCM3722, growth: C-lim chemostat, doubling time 3 h
# [6] = wild type E. coli NCM3722, growth: C-lim chemostat, doubling time 6 h
# [7] = wild type E. coli NCM3722, growth: C-lim chemostat, doubling time 12 h
# [8] = wild type E. coli NCM3722, growth: N-lim chemostat, doubling time 6 h
# [9] = wild type E. coli NCM3722, growth: N-lim chemostat, doubling time 12 h
# [10] = wild type E. coli NCM3722, growth: P-lim chemostat, doubling time 6 h
# [11] = wild type E. coli NCM3722, growth: P-lim chemostat, doubling time 12 h
# [12] = E. coli NCM3722 delta-clpP, growth: N-lim chemostat, doubling time 6 h
Sequence,total protein half-life in vivo [1] [h],total protein half-life in vivo [2] [h],total protein half-life in vivo [3] [h],total protein half-life in vivo [4] [h],total protein half-life in vivo [5] [h],total protein half-life in vivo [6] [h],total protein half-life in vivo [7] [h],total protein half-life in vivo [8] [h],total protein half-life in vivo [9] [h],total protein half-life in vivo [10] [h],total protein half-life in vivo [11] [h],total protein half-life in vivo [12] [h]
MKTLLIIDANLGQARAYMAKTLLGAAARKAKLEIIDNPNDAEMAIVLGDSIPNDSALNGKNVWLGDISRAVAHPELFLSEAKGHAKPYTAPVAATAPVAASGPKRVVAVTACPTGVAHTFMAAEAIETEAKKRGWWVKVETRGSVGAGNAITPEEVAAADLVIVAADIEVDLAKFAGKPMYRTSTGLALKKTAQELDKAVAEATPYEPAGKAQTATTESKKESAGAYRHLLTGVSYMLPMVVAGGLCIALSFAFGIEAFKEPGTLAAALMQIGGGSAFALMVPVLAGYIAFSIADRPGLTPGLIGGMLAVSTGSGFIGGIIAGFLAGYIAKLISTQLKLPQSMEALKPILIIPLISSLVVGLAMIYLIGKPVAGILEGLTHWLQTMGTANAVLLGAILGGMMCTDMGGPVNKAAYAFGVGLLSTQTYGPMAAIMAAGMVPPLAMGLATMVARRKFDKAQQEGGKAALVLGLCFISEGAIPFAARDPMRVLPCCIVGGALTGAISMAIGAKLMAPHGGLFVLLIPGAITPVLGYLVAIIAGTLVAGLAYAFLKRPEVDAVAKAA,6.73 ± 0.62,5.956 ± 0.014,5.76 ± 0.27,5.89 ± 0.43,3.54 ± 0.33,6.11 ± 0.28,13.4 ± 0.7,5.89 ± 0.44,11.6 ± 0.25,6.29 ± 0.29,11.9 ± 0.6,
MISVFDIFKIGIGPSSSHTVGPMKAGKQFTDDLIARNLLKDVTRVVVDVYGSLSLTGKGHHTDIAIIMGLAGNLPDTVDIDSIPSFIQDVNTHGRLMLANGQHEVEFPVDQCMNFHADNLSLHENGMRITALAGDKVVYSQTYYSIGGGFIVDEEHFGQQDSAPVEVPYPYSSAADLQKHCQETGLSLSGLMMKNELALHSKEELEQHLANVWEVMRGGIERGISTEGVLPGKLRVPRRAAALRRMLVSQDKTTTDPMAVVDWINMFALAVNEENAAGGRVVTAPTNGACGIIPAVLAYYDKFIREVNANSLARYLLVASAIGSLYKMNASISGAEVGCQGEVGVACSMAAAGLAELLGASPAQVCIAAEIAMEHNLGLTCDPVAGQVQVPCIERNAIAAVKAVNAARMALRRTSEPRVCLDKVIETMYETGKDMNAKYRETSRGGLAMKIVACD,3.9,,,,,,,,,,,
MSDVAETLDPLRLPLQGERLIEASAGTGKTFTIAALYLRLLLGLGGSAAFPRPLTVEELLVVTFTEAATAELRGRIRSNIHELRIACLRETTDNPLYERLLEEIDDKAQAAQWLLLAERQMDEAAVFTIHGFCQRMLNLNAFESGMLFEQQLIEDESLLRYQACADFWRRHCYPLPREIAQVVFETWKGPQALLRDINRYLQGEAPVIKAPPPDDETLASRHAQIVARIDTVKQQWRDAVGELDALIESSGIDRRKFNRSNQAKWIDKISAWAEEETNSYQLPESLEKFSQRFLEDRTKAGGETPRHPLFEAIDQLLAEPLSIRDLVITRALAEIRETVAREKRRRGELGFDDMLSRLDSALRSESGEVLAAAIRTRFPVAMIDEFQDTDPQQYRIFRRIWHHQPETALLLIGDPKQAIYAFRGADIFTYMKARSEVHAHYTLDTNWRSAPGMVNSVNKLFSQTDDAFMFREIPFIPVKSAGKNQALRFVFKGETQPAMKMWLMEGESCGVGDYQSTMAQVCAAQIRDWLQAGQRGEALLMNGDDARPVRASDISVLVRSRQEAAQVRDALTLLEIPSVYLSNRDSVFETLEAQEMLWLLQAVMTPERENTLRSALATSMMGLNALDIETLNNDEHAWDVVVEEFDGYRQIWRKRGVMPMLRALMSARNIAENLLATAGGERRLTDILHISELLQEAGTQLESEHALVRWLSQHILEPDSNASSQQMRLESDKHLVQIVTIHKSKGLEYPLVWLPFITNFRVQEQAFYHDRHSFEAVLDLNAAPESVDLAEAERLAEDLRLLYVALTRSVWHCSLGVAPLVRRRGDKKGDTDVHQSALGRLLQKGEPQDAAGLRTCIEALCDDDIAWQTAQTGDNQPWQVNDVSTAELNAKTLQRLPGDNWRVTSYSGLQQRGHGIAQDLMPRLDVDAAGVASVVEEPTLTPHQFPRGASPGTFLHSLFEDLDFTQPVDPNWVREKLELGGFESQWEPVLTEWITAVLQAPLNETGVSLSQLSARNKQVEMEFYLPISEPLIASQLDTLIRQFDPLSAGCPPLEFMQVRGMLKGFIDLVFRHEGRYYLLDYKSNWLGEDSSAYTQQAMAAAMQAHRYDLQYQLYTLALHRYLRHRIADYDYEHHFGGVIYLFLRGVDKEHPQQGIYTTRPNAGLIALMDEMFAGMTLEEA,5.03 ± 0.26,3.64 ± 0.075,3.84 ± 0.3,3.72 ± 0.33,3.13 ± 0.34,5.03 ± 0.71,13.2 ± 3.9,3.87 ± 0.3,5.71 ± 0.92,6.9 ± 0.91,10.4 ± 0.56,4.28 ± 0.35
MQEYTNHSDTTFALRNISFRVPGRTLLHPLSLTFPAGKVTGLIGHNGSGKSTLLKMLGRHQPPSEGEILLDAQPLESWSSKAFARKVAYLPQQLPPAEGMTVRELVAIGRYPWHGALGRFGAADREKVEEAISLVGLKPLAHRLVDSLSGGERQRAWIAMLVAQDSRCLLLDEPTSALDIAHQVDVLSLVHRLSQERGLTVIAVLHDINMAARYCDYLVALRGGEMIAQGTPAEIMRGETLEMIYGIPMGILPHPAGAAPVSFVY,5.18,,,5.19 ± 0.12,2.65 ± 0.19,6.7,11.4,6.03 ± 0.81,10.7,,12.9 ± 3,5.55
MLSKQIPLGIYEKALPAGECWLERLQLAKTLGFDFVEMSVDETDDRLSRLNWSREQRLALVNAIVETGVRVPSMCLSAHRRFPLGSEDDAVRAQGLEIMRKAIQFAQDVGIRVIQLAGYDVYYQEANNETRRRFRDGLKESVEMASRAQVTLAMEIMDYPLMSSISKALGYAHYLNNPWFQLYPDIGNLSAWDNDVQMELQAGIGHIVAVHVKDTKPGVFKNVPFGEGVVDFERCFETLKQSGYCGPYLIEMWSETAEDPAAEVAKARDWVKARMAKAGMVEAA,5.97,,,,,,,,,,,
MDALELLINRRSASRLAEPAPTGEQLQNILRAGMRAPDHKSMQPWHFFVIEGEGRERFSAVLEQGAIAAGSDDKAIDKARNAPFRAPLIITVVAKCEENHKVPRWEQEMSAGCAVMAMQMAAVAQGFGGIWRSGALTESPVVREAFGCREQDKIVGFLYLGTPQLKASTSINVPDPTPFVTYF [P0ACY1],5.15 ± 0.18,4.55 ± 0.042,4.85 ± 0.25,4.85 ± 0.27,2.91 ± 0.03,5.49 ± 0.1,9.81 ± 4.2,4.7 ± 0.14,7.1 ± 0.14,5.6 ± 0.17,11.6 ± 1.3,5.29 ± 0.85
MNEAVSPGALSTLFTDARTHNGWRETPVSDETLREIYALMKWGPTSANCSPARIVFTRTAEGKERLRPALSSGNLQKTLTAPVTAIVAWDSEFYERLPLLFPHGDARSWFTSSPQLAEETAFRNSSMQAAYLIVACRALGLDTGPMSGFDRQHVDDAFFTGSTLKSNLLINIGYGDSSKLYARLPRLSFEEACGLL,,0.257 ± 0.15,0.612 ± 0.095,0.402,,,,0.94 ± 0.6,,,,1.43
